Changes are numbered by the printed parent chain. Names and notes keep the numbering of the source. Like-named read-outs stand apart in the source and are kept apart here.
B1: H4H9008P (antibody, human IgG4 S228P, kappa, V domains shown)
VH: EVQLVESGGGLVRPGGSLRLSCAASGFTFSTYAMAWVRQTPGKGLEGVSAIGGSGDSTYYVDSVKGRFTISRDNSKSTLFLQMNSLRAEDTAVYYCVKVRNYDGSFDIWGQGTMVTVSS
VL: not shown
notes: human IgG4 Fc
B2: H4xH9008P (antibody, V domains shown)
VH: B1 VH
VL: not shown
notes: human IgG4 Fc with 2 or more amino acid changes (US20100331527)
B3: H4H9068P2 (antibody, V domains shown)
VH: EVQLVESGGGLVQRGGSLRLSCAASGFSFSSYAMNWVRQAPGKGLEWVSTISDSGGSTYYADSVKGRFTISRDNSKNTLSLQMNSLRAEDTAVYYCAKDQGGSYPYYFHYWGQGTLVTVSS
VL: not shown
notes: fully human; H4H prefix (human IgG4 Fc)
B4: H4H7798N (antibody, human IgG4 S228P, kappa, V domains shown)
VH: EVQLLESGGVLVQPGGSLRLSCAASGFTFSNFGMTWVRQAPGKGLEWVSGISGGGRDTYFADSVKGRFTISRDNSKNTLYLQMNSLKGEDTAVYYCVKWGNIYFDYWGQGTLVTVSS
VL: DIQMTQSPSSLSASVGDSITITCRASLSINTFLNWYQQKPGKAPNLLIYAASSLHGGVPSRFSGSGSGTDFTLTIRTLQPEDFATYYCQQSSNTPFTFGPGTVVDFRR
notes: human IgG4 Fc
B5: H1M7789N (antibody, V domains shown)
VH: EVQLLESGGGLVQPGGSLRLSCSASGFTFSSYTMNWVRQAPGKGLEWVSGISDTGGNTYYTDSVKGRFTVSRDNSKNTLSLQMNSLRAEDTAVYYCAKDQGGSYPYYFHYWGQGSLVTVSS
VL: DIQMTQSPSSLSASVGDRVTITCRASQSISSYLIWYQQKPGTAPKFLIYAASSLQSGVPSRFSGCGSGTDFTLTISSLQPEDFATYYCQQSYSTPPITFGQGTRLEIK
notes: human variable regions, mouse IgG1 Fc
B6: H2aM7795N (antibody, V domains shown)
VH: EVQVVESGGGLVEPGRSLRLSCKASGFTFDDYAMHWVRQTPGKALEWVSGINWSGNNIGYADSVKGRFTISKDDAKNSLYLQMNSLRPEDTALYYCTKDISITGTLDAFDVWGQGTMVTVSS
VL: DIQMTQSPISVSASVGDRVTITCRASQGISNWLAWYQQKPGIAPKLLIYSASSLQSGVPSRFRGSGSGTDFTLTIGSLQPEDFATYYCQQAHSFPLTFGGGTKVEIK
notes: human variable regions, mouse IgG2a Fc; also called H2M7795N
B7: H4H7795N2 (antibody, human IgG4 S228P, kappa, V domains shown)
VH: B6 VH with N52S
VL: DIQMTQSPISVSASVGDRVTITCRASQGISNWLAWYQQKPGIAPKLLIYSASSLQSGVPSRFRGSGSGTDFTLTIGSLQPEDFATYYCQQAHSFPLTFGGGTKVEIKR
notes: human IgG4 Fc
B8: H4H9057P2 (antibody, human IgG4, V domains shown)
VH: EVQLVESGGGLVQSGRSLRLSCAASGFTFDDYAMHWVRQPPGKGLEWVSGINWNRGRTGYADSVKGRFTISRDNAKNSLYLQMNDLRVEDTALYYCAKAEQWLDEGYFDYWGQGTLVTVSS
VL: not shown
notes: Fully human; H4H prefix (human IgG4 Fc)
B9: H4xH8999P (antibody, human IgG4, V domains shown)
VH: QLQLQESGPGLVQPSETLSLTCTVSGDSISSTAYHWDWIRQPPGKGLEWIGTITYNGNTYFNPSLKSRVTISVDTSKNQFSLKLLSMTAAETAVFYCARHLGYNSDFFPFDFWGQGTLVTVSS
VL: not shown
notes: H4xH: modified human IgG4 Fc
B10: H2aM7791N (antibody, V domains shown)
VH: QMQLQQWGAGLLKPSETLSLTCVVYGGSLNGYYWSWIRQSPGKGLEWIGEIDHSGSTNYNPSLKNRVTMSVDTSKIQFSLKLTSVTVADTAVYYCAREGLLPFDYWGQGTLVTVSS
VL: EIVLTQSPGTLSLSPGERVTLSCRASQSVYSNYLAWYQQNPGQAPRLLIYAASNRATGIPDRFSGSGSGTDFTLTISRLEPEDFAVYYCHQYATSPWTFGQGTKVEIK
notes: human variable regions, mouse IgG2a Fc; also called H2M7791N

How the values were obtained:
[1] = target: T1, PD-1 chimera: extracellular domain of human PD-1 with trans-membrane and cytoplasmic domains of human CD300a, … (human, UniProt Q9UGN4 181-299, limits assumed); test: cell-based or functional assay
T1 sequence (Q9UGN4 other isoform, or with tags, fused parts or gaps mutant limits assumed, form in doubt): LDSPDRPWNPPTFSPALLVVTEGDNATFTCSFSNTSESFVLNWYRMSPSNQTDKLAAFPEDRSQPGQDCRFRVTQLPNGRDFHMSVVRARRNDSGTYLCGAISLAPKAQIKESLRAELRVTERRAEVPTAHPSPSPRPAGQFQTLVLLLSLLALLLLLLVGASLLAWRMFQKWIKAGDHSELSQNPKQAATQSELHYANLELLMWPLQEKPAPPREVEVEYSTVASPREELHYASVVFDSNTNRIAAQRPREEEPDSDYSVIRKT

[2] = target: T2, full length human PD-1 on HEK293/hPD-1 cells (human, UniProt Q15116 25-288); test: FACS dose response, HEK293/hPD-1 cells; EC50 Inconclusive
T2 sequence (Q15116 25-288 limits assumed): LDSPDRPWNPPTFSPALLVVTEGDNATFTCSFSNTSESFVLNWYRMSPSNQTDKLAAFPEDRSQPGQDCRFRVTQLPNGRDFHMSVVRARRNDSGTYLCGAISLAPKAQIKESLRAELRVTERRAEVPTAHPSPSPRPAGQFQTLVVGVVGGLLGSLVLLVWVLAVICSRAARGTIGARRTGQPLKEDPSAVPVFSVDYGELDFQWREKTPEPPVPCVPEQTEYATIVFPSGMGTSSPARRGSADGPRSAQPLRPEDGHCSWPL

[3] = target: T3, recombinant human PD-1 expressed with a C-terminal human IgG1 Fc tag (human); test: SPR Biacore 3000: 100 nM hPD-1.hFc + 500 nM mAb to captured hPD-L1.mFc;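 further: inhibition study with anti-PD-1 mAbs, SPR responses tracked in real time and read at the close of each step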
T3 construct: also called hPD-1-hFc; hPD1-hFc
T3 sequence (chain, as listed by the source limits assumed): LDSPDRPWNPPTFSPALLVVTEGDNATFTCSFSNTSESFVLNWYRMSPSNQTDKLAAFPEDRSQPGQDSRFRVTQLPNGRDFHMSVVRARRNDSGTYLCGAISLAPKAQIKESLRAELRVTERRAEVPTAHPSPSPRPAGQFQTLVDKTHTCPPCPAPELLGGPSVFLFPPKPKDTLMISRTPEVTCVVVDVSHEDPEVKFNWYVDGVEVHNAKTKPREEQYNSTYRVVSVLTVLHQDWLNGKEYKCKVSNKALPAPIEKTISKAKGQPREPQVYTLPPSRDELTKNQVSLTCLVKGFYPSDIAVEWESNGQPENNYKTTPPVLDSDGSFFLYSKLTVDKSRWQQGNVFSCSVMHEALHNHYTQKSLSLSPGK

[4] = target: T4, recombinant human PD-L1 expressed with a C-terminal mouse IgG2a Fc tag (human); test: SPR Biacore 3000: 500 nM mAb alone (no hPD-1.hFc) over captured hPD-L1.mFc surface, control
T4 construct: also called hPD-L1-mFc; hPD-L1.mFc

[5] = target: T5, monkey PD-1 with mFc (monkey); test: SPR, captured mAb, 25 C;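 further: purified anti-PD-1 antibodies tested on Biacore 4000 or T200 instruments, rate constants obtained via 1:1 binding model fit, with KD as kd/ka and half-life as ln2/(60·kd)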
T5 construct: also called monkey PD-1-mFc; monkey PD-1 dimer
T5 chain: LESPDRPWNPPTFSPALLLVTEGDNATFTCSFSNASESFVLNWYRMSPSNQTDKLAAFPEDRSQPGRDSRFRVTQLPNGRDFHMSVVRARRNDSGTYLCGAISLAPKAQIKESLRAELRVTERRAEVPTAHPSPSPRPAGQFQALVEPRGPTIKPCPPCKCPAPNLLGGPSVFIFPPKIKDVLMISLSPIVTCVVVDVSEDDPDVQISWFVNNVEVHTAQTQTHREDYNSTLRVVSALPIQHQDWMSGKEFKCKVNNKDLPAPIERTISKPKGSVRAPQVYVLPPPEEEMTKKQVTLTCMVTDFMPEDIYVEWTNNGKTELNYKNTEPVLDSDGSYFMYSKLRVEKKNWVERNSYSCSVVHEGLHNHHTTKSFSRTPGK

[6] = target: T5, monkey PD-1 with mFc; test: SPR, captured mAb, 37 C;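 further: Real-time Biacore surface plasmon resonance biosensor readout of PD-1 reagent binding to purified anti-PD-1 monoclonal antibodies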
[7] = target: T2, full length human PD-1 on HEK293/hPD-1 …; test: FACS, 100 nM mAb, HEK293/hPD-1 cells;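 further: antibodies incubated with cells for 15-30 min on ice, bound antibody detected through a secondary F(ab′)2 by flow cytometry, with parental HEK293 cells tested in parallel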
[8] = target: T6, recombinant human PD-1 dimer expressed with a C-terminal mouse IgG2a Fc tag (human); test: competition ELISA: 1.5 nM hPD-1-mFc to coated hPD-L1-hFc
T6 construct: also called hPD-1-mFc

[9] = target: T6, recombinant human PD-1 dimer expressed …; test: competition ELISA: 100 pM hPD-1-mFc to coated hPD-L2-hFc
[10] = target: T5, monkey PD-1 with mFc; test: SPR, captured mAb, 37 C; no dissociation observed, kd fixed at 1.00E-05;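 on 100 nM Monkey PD-1-mFc Bound (RU): Real-time Biacore surface plasmon resonance biosensor readout of PD-1 reagent binding to purified anti-PD-1 monoclonal antibodies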;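 on koff: Real-time Biacore surface plasmon resonance biosensor readout of PD-1 reagent binding to purified anti-PD-1 monoclonal antibodies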;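 on kon: Real-time Biacore surface plasmon resonance biosensor readout of PD-1 reagent binding to purified anti-PD-1 monoclonal antibodies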
[11] = target: T2, full length human PD-1 on HEK293/hPD-1 …; test: FACS, 100 nM mAb
[12] = target: T1, PD-1 chimera: extracellular domain of …; test: cell-based or functional assay; remark: listed apart in the source
[13] = target: T2, full length human PD-1 on HEK293/hPD-1 …; test: FACS dose response, HEK293/hPD-1 cells; No EC50 determined
[14] = target: T2, full length human PD-1 on HEK293/hPD-1 …; test: FACS dose response, HEK293/hPD-1 cells
[15] = target: T6, recombinant human PD-1 dimer expressed …; test: BLI Octet: 100 nM hPD-1-mFc + 500 nM mAb to captured hPD-L1-hFc
[16] = target: T7, human PD-1 dimer (human PD-1-mFc or human PD-1-hFc) (human, UniProt Q15116 25-170); test: SPR, mAb captured, 25C;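 further: surface plasmon resonance on Biacore, PD-1 flowed over captured anti-PD-1 antibodies, rate constants from a 1:1 binding model fit, KD taken as kd/ka and t½ as ln2/(60·kd)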
T7 construct: also called hPD-1-mFc; hPD1-hFc
T7 sequence (Q15116 25-170 C93S): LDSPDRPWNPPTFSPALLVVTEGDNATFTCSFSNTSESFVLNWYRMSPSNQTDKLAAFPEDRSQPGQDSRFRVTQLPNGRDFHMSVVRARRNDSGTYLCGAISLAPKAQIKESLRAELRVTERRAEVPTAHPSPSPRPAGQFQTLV

[17] = target: T7, human PD-1 dimer (human PD-1-mFc or …); test: SPR, mAb captured, 37C;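 further: Real-time Biacore biosensor, PD-1 dimer flowed over anti-PD-1 antibody surface, rate constants fitted to a 1:1 model, KD derived as kd/ka and t½ as ln2/(60·kd)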
[18] = target: T8, recombinant cynomolgus monkey PD-1 expressed with a C-terminal myc-myc-hexahistidine tag (cynomolgus monkey (Macaca fascicularis)); test: SPR, mAb captured, 25C; 25 C
T8 construct: monomeric; also called MfPD-1-MMH
T8 chain: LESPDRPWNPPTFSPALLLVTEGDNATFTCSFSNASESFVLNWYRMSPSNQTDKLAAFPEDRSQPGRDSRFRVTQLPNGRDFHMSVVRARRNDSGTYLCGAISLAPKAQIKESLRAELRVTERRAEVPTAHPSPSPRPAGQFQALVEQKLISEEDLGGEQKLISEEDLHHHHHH

[19] = target: T9, recombinant human PD-1 expressed with a C-terminal myc-myc-hexahistidine tag (human); test: SPR (Biacore), mAb captured, hPD-1-MMH injected, 25 C;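 further: rate constants obtained by fitting sensorgrams to a 1:1 binding model, KD derived as kd/ka and half-life as ln2/(60·kd) in minutes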
T9 construct: also called hPD-1-MMH; human PD-1-MMH

[20] = target: T10, recombinant cynomolgus monkey PD-1 expressed with a C-terminal myc-myc-hexahistidine tag (cynomolgus monkey (Macaca fascicularis)); test: SPR (Biacore), MfPD-1-MMH, 25 C; end of range tied to H4xH8999P by Table 8
T10 construct: Monomeric reagent; also called MfPD-1-MMH
T10 chain: T8 chain

| Binder | Emax mean [%] @ 100 nM [1] [%] | Max Geom. Mean MFI @ 100 nM [2] [MFI] | % Blocking [3] [%] | binding of the mixture (RU) [3] [RU] | 500 nM of anti-PD-1 monoclonal antibody (RU) [4] [RU] | Kd [5] [nM] | t1/2 [5] [min] | 100 nM Monkey PD-1-mFc Bound (RU) [6] [RU] | MFI [7] [MFI] | ratio of MFI HEK293/hPD-1 to HEK293 parental cells [11] | Emax mean [%] @ 100 nM [12] [%] | 100 nM Monkey PD-1-mFc Bound (RU) [5] [RU] | koff [5] [s⁻¹] | kon [5] [M⁻¹ s⁻¹] | Kd [6] [nM] | koff [6] [s⁻¹] | kon [6] [M⁻¹ s⁻¹] | t1/2 [6] [min] | Max Geom. Mean MFI @ 100 nM [13] [MFI] | % Blocking [15] [%] | also measured |
| --- | --- | --- | --- | --- | --- | --- | --- | --- | --- | --- | --- | --- | --- | --- | --- | --- | --- | --- | --- | --- | --- |
| B1 | 150 | 32200 | 107 | -7 | -7 |  |  |  |  |  |  |  |  |  |  |  |  |  |  |  |  |
| B2 |  |  |  | 1 | 0 | 0.48 | 200 | 98 | 26200 |  |  |  |  |  |  |  |  |  |  |  | % blocking at 200 nM antibody [8]: 88%; IC50 [8]: 2.4 nM; % blocking at 100 nM antibody [9]: 94%; Kd [10]: ≤ 0.049 nM; t1/2 [10]: ≥ 1160 min |
| B3 |  |  |  |  | -2 | 54.2 | 4 | 6 | 1940 | 6.8 | 102 | 17 | 0.00309 | 57000 | 86.3 | 0.0105 | 121000 | 1.1 | 639 |  |  |
| B4 | 343 |  | 106 | -6 | -6 | 0.137 | 188 | 88 |  |  | 202 | 93 | 6.14e-05 | 449000 | 0.202 | 0.000127 | 630000 | 91 |  |  | Concentration (M) of Antibody at 150% activation [12]: 1.54e-09 M; EC50 [14]: 0.509 nM; Max Geom. Mean MFI @ 100 nM [14]: 20300 MFI |
| B5 |  | 35600 |  |  |  |  |  |  | 24200 | 92.3 | 135 |  |  |  |  |  |  |  |  | 29 | binding of the mixture (nm) [15]: 0.05 nm |
| B6 |  |  |  |  |  |  |  |  | 817 | 2.8 | 109 |  |  |  |  |  |  |  | 624 | 114 | binding of the mixture (nm) [15]: -0.01 nm |
| B7 | 110 | 15200 | 106 | -6 | -5 | 0.621 | 116 | 47 |  |  |  | 60 | 9.92e-05 | 160000 | 1.71 | 0.00029 | 170000 | 40 |  |  |  |
| B8 |  |  |  |  |  |  |  |  |  |  |  |  |  |  |  |  |  |  |  |  | Kd [16]: 1.75 nM; koff [16]: 0.000177 s⁻¹; kon [16]: 101000 M⁻¹ s⁻¹; t½ [16]: 65 min; Kd [17]: 9.07 nM; koff [17]: 0.00211 s⁻¹; kon [17]: 233000 M⁻¹ s⁻¹; t½ [17]: 5 min; Kd [18]: 551 nM; koff [18]: 0.0191 s⁻¹; kon [18]: 34600 M⁻¹ s⁻¹; t½ [18]: 0.6 min |
| B9 |  |  |  |  |  |  |  |  |  |  |  |  |  |  |  |  |  |  |  |  | Kd [19]: 4.33 nM; t½ [19]: 9.4 min; Kd [20]: 3.09 nM |
| B10 |  |  |  |  |  |  |  |  | 4950 | 18 | 103 |  |  |  |  |  |  |  | 1400 | -229 | binding of the mixture (nm) [15]: 0.23 nm |
